This test has as its target recombinant CSABP protein (CSABP-FL) (human) (UniProt Q9H6S0). As to the kind of experiment: SPR, Biacore 3000; recombinant CSABP-FL immobilized on CM5 chip by amine coupling, CsA in PBS-8% DMSO as analyte. (SPR reads the build-up and loss of mass on a sensor chip optically.)

As for cyclosporin A (CsA) (peptide), the Kd is 120 nM.

What is called Kd is a measure of binding affinity in units of concentration.

The record behind these values is US20110158908A1, “CYCLOSPORIN A-BINDING PROTEIN” (Sapporo Medical University, priority 2007, published 2011).
